“And” between values parts separate entries of the source, which are not always exact repeats. Equal values may be shown once. Where no end group is shown, it is not given here. The star is where a group is joined. Dnp = O=[N+]([O-])c1ccc(*)c([N+](=O)[O-])c1; 2Abz = Nc1ccccc1C(=O)O
Columns and labels:
[1] = target: Human plasma purified α-thrombin (Homo sapiens, UniProt P00734); experiment: Thrombin cleavage kinetics of quenched fluorescence (QF) peptide substrates, progress curve; type: biochemical; settings: for Fold-Improved (FpA): kcat/KM relative to FpA substrate Lys(Dnp)-DFLAEGGGVRIVGG-Lys(Abz); for Fold-Improved (PAR-1): kcat/KM relative to PAR 1 control substrate Lys(Dnp)-ATNATLDPRIVGG-Lys(Abz)
[2] = target: T1, Human plasma purified Factor Xa (Homo sapiens, UniProt P00742); experiment: Factor Xa cleavage kinetics of quenched fluorescence (QF) peptide substrates, progress curve; type: biochemical; settings: for Specificity Ratio (FIIa/FXa): FIIa kcat/KM divided by FXa kcat/KM, natural sequence QF substrates; for specificity ratio: X4/X3 positional scanning QF library (Table 4), FIIa/FXa
T1 construct: purchased Molecular Innovations, Inc, Novi Mich., USA; host or cells: human plasma
T1 sequence (P00742 41-179 limits assumed): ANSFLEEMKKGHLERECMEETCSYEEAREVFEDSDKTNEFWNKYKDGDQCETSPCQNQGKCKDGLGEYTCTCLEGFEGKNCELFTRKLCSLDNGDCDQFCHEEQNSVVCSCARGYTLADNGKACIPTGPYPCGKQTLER
T1 sequence (P00742 235-488 limits assumed): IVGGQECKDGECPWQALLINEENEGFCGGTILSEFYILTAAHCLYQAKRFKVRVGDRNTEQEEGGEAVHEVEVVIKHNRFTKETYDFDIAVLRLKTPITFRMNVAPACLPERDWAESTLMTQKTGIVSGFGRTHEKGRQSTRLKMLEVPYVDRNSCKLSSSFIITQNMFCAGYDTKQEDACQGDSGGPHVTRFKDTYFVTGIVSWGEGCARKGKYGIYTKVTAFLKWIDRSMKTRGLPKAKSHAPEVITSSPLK

| Substance | Fold-Improved (FpA) [1] | Fold-Improved (PAR-1) [1] | Specificity Ratio (FIIa/FXa) [2] | specificity ratio [2] [fold] |
| --- | --- | --- | --- | --- |
| Antithrombin: QF substrate Lys(Dnp)-X10-X1-IVGG-Lys(Abz), X10-X1 = ASTAVVIAGR (K(Dnp)ASTAVVIAGRIVGGK(2Abz)) | 0.001 | 0.000 | 0 | – |
| Factor V (1): QF substrate Lys(Dnp)-X10-X1-IVGG-Lys(Abz), X10-X1 = HTHHAPLSPR (K(Dnp)HTHHAPLSPRIVGGK(Abz)) | 77.2 | 11.2 | 2 | – |
| Factor V (2): QF substrate Lys(Dnp)-X10-X1-IVGG-Lys(Abz), X10-X1 = NRLAAALGIR (K(Dnp)NRLAAALGIRIVGGK(2Abz)) | 1.8 | 0.3 | 302 | – |
| Factor V (3): QF substrate Lys(Dnp)-X10-X1-IVGG-Lys(Abz), X10-X1 = PDNIAAWYLR (K(Dnp)PDNIAAWYLRIVGGK(2Abz)) | 0.2 | 0.03 | 7 | – |
| Factor VIII (1): QF substrate Lys(Dnp)-X10-X1-IVGG-Lys(Abz), X10-X1 = LSKNNAIEPR (K(Dnp)LSKNNAIEPRIVGGK(2Abz)) | 32.3 | 4.7 | – | – |
| Factor VIII (2): QF substrate Lys(Dnp)-X10-X1-IVGG-Lys(Abz), X10-X1 = YDEDENQSPR (K(Dnp)YDEDENQSPRIVGGK(2Abz)) | 2.3 | 0.3 | 13 | – |
| Factor XI: QF substrate Lys(Dnp)-X10-X1-IVGG-Lys(Abz), X10-X1 = NESTTKIKPR (K(Dnp)NESTTKIKPRIVGGK(2Abz)) | 49.2 | 7.1 | 559 | – |
| Factor XIII: QF substrate Lys(Dnp)-X10-X1-IVGG-Lys(Abz), X10-X1 = TVELQGVVPR (K(Dnp)TVELQGVVPRIVGGK(Abz)) | 28.7 | 4.2 | 114 | – |
| FpA_P: QF substrate Lys(Dnp)-X10-X1-IVGG-Lys(Abz), X10-X1 = DFLAEGGGPR; FpA with proline at X2 (K(Dnp)DFLAEGGGPRIVGGK(2Abz)) | 97.8 | 14.2 | 6914 | – |
| FpB: QF substrate Lys(Dnp)-X10-X1-IVGG-Lys(Abz), X10-X1 = DNEEGFFSAR (K(Dnp)DNEEGFFSARIVGGK(2Abz)) | 0.7 | 0.1 | 1 | – |
| Lys(Dnp)-DFLAEGGGVRIVGG-Lys(Abz) (K(Dnp)DFLAEGGGVRIVGGK(2Abz)) [FpA, reference compound] | – | – | 121 | – |
| MKPR: QF library substrate Lys(Dnp)-ATNATX4X3PRIVGG-Lys(Abz) with X4-X1 = MKPR (K(Dnp)ATNATMKPRIVGGK(2Abz)) | – | – | – | ~300 |
| MTPR: QF library substrate Lys(Dnp)-ATNATX4X3PRIVGG-Lys(Abz) with X4-X1 = MTPR (K(Dnp)ATNATMTPRIVGGK(2Abz)) | – | – | – | ~300 |
| Osteopontin: QF substrate Lys(Dnp)-X10-X1-IVGG-Lys(Abz), X10-X1 = RGDSVVYGLR (K(Dnp)RGDSVVYGLRIVGGK(Abz)) | 1.0 | 0.1 | 239 | – |
| PAR1 (2): QF substrate with X8-X1 = TNATLDPR, prime side IVGG (KTNATLDPRIVGGK) | – | – | 4 | – |
| PAR1 (3): QF substrate with X6-X1 = ATLDPR, prime side IVGG (KATLDPRIVGGK) | – | – | 4 | – |
| PAR 1: QF substrate Lys(Dnp)-X10-X1-IVGG-Lys(Abz), X10-X1 = KATNATLDPR (Table 3 r16) (K(Dnp)ATNATLDPRIVGGK(2Abz); also: template implies Lys(Dnp) before X10 K, letters have one K, taken as Lys(Dnp)) | 9.7 and 8.9 and 8.2 | 1.4 and 1.3 and 1.2 | – | – |
| PAR 3: QF substrate Lys(Dnp)-X10-X1-IVGG-Lys(Abz), X10-X1 = NLAKPTLPIK (K(Dnp)NLAKPTLPIKIVGGK(2Abz)) | 0.04 | 0.01 | 5 | – |
| PAR 4: QF substrate Lys(Dnp)-X10-X1-IVGG-Lys(Abz), X10-X1 = STPSILPAPR (K(Dnp)STPSILPAPRIVGGK(2Abz)) | 23.1 | 3.4 | 40 | – |
| Protein C: QF substrate Lys(Dnp)-X10-X1-IVGG-Lys(Abz), X10-X1 = EDQEDQVDPR (K(Dnp)EDQEDQVDPRIVGGK(2Abz)) | 4.4 | 0.6 | 133 | – |
| TAFI: QF substrate Lys(Dnp)-X10-X1-IVGG-Lys(Abz), X10-X1 = QISNDTVSPR (K(Dnp)QISNDTVSPRIVGGK(Abz)) | 13.1 | 1.9 | 16 | – |
| Thrombin (1): QF substrate Lys(Dnp)-X10-X1-IVGG-Lys(Abz), X10-X1 = DQVTVAMTPR (K(Dnp)DQVTVAMTPRIVGGK(2Abz)) | 73.6 | 10.7 | 64 | – |
| Thrombin (2): QF substrate Lys(Dnp)-X10-X1-IVGG-Lys(Abz), X10-X1 = SEYQTFFNPR (K(Dnp)SEYQTFFNPRIVGGK(Abz)) | 48.7 | 7.1 | 0 | – |
| Thrombin (3): QF substrate Lys(Dnp)-X10-X1-IVGG-Lys(Abz), X10-X1 = EDSDRAIEGR (K(Dnp)EDSDRAIEGRIVGGK(2Abz)) | 0.000 | 0.000 | 141 | – |
| WTPR: QF library substrate Lys(Dnp)-ATNATX4X3PRIVGG-Lys(Abz) with X4-X1 = WTPR (K(Dnp)ATNATWTPRIVGGK(2Abz)) | – | – | – | ~300 |

Reference: patent US20160024487A1, “THROMBIN SENSITIVE COAGULATION FACTOR X MOLECULES” (NOVO NORDISK A/S, priority 2013, published 2016)
